Measured values published in IntAct's records for PubMed 15935762.

B1: Protein pop-1 (Caenorhabditis elegans), Q10666 (parent)
chain: MMADEELGDEVKVFRRDEDADDDPMISGETSEQQLADDKKEAVMEAELDGAGRNPSIDVLKSAFPKVEPMSPSFPGLMSHFSPGYSAAALPMFMPLFMNPYAAALRSPSLMFPMGAMSPTFPMFPPSPVYGAAIAAAAAKQHFENMAPLNMRAGHPMNQMGMPPYMHPSSMAPQNVDRRAQGGGKAKKDDHVKKPLNAFMWFMKENRKALLEEIGNNEKQSAELNKELGKRWHDLSKEEQAKYFEMAKKDKETHKERYPEWSARENYAVNKKKTKKRRDKSIPSENNDQKKCRARFGVNNTEMWCKFCKRKKKCEYATDRSGGSDITDSQDGRGTSGAYSSSSESPSPKANAGIALTTQQQQAAMMHTMLMQMRLGSTTGASTHVPSPLASSSAGRSPLDANASDSESDVEEEEDEQIDPTVMQQTHDMLMQESMCTI
partner: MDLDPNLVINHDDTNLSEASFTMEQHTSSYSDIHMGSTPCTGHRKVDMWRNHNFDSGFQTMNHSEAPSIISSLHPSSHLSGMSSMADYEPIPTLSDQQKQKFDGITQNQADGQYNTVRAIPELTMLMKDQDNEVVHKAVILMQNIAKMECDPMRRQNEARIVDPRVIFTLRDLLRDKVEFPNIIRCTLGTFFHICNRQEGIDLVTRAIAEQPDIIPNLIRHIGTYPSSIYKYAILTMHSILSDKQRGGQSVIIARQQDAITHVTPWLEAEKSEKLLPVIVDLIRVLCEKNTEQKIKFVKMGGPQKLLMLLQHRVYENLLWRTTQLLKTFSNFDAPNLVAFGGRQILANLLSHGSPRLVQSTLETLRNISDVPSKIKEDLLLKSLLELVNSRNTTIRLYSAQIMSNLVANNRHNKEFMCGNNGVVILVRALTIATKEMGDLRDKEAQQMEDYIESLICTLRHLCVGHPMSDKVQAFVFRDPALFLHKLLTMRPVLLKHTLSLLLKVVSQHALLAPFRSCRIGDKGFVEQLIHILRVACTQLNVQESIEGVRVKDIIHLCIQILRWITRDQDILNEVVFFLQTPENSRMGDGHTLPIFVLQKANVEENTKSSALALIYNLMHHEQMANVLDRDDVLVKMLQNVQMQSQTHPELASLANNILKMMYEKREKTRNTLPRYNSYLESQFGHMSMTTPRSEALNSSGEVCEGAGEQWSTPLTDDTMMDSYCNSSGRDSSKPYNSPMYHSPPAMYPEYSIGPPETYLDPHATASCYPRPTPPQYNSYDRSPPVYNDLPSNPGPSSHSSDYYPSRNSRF
B2: Protein pop-1 (Caenorhabditis elegans), Q10666 (parent)
chain: B1 chain
partner: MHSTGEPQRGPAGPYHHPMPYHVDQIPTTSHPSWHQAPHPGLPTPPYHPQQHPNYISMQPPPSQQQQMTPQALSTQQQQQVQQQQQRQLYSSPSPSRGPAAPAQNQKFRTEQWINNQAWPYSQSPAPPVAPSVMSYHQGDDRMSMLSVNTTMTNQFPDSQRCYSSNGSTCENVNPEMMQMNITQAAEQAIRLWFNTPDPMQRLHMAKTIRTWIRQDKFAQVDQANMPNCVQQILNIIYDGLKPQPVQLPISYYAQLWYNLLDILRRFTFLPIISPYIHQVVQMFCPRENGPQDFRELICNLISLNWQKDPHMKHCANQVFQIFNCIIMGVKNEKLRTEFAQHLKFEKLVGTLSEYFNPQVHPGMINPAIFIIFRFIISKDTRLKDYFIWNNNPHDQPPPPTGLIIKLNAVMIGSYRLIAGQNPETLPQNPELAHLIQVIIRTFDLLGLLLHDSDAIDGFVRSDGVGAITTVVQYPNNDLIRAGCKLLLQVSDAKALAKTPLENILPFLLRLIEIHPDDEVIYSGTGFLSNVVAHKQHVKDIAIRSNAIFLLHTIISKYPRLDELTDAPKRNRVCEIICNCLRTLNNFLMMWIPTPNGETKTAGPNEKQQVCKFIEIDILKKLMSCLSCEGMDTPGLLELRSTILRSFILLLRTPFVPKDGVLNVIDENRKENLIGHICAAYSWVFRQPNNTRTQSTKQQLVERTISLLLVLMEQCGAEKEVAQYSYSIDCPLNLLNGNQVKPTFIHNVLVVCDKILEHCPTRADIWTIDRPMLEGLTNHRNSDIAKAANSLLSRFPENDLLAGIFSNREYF

Variants of: B1
Conditions: with bar1_caeel bar-1, Q18825
For MMADEELGEEVKVFRRDEDADDDPMISGETSEQQLADDKKEAVMEAELDGAGRNPSIDVLKSAFPKVEPMSPSFPGLMSHFSPGYSAAALPMFMPLFMNPYAAALRSPSLMFPMGAMSPTFPMFPPSPVYGAAIAAAAAKQHFENMAPLNMRAGHPMNQMGMPPYMHPSSMAPQNVDRRAQGGGKAKKDDHVKKPLNAFMWFMKENRKALLEEIGNNEKQSAELNKELGKRWHDLSKEEQAKYFEMAKKDKETHKERYPEWSARENYAVNKKKTKKRRDKSIPSENNDQKKCRARFGVNNTEMWCKFCKRKKKCEYATDRSGGSDITDSQDGRGTSGAYSSSSESPSPKANAGIALTTQQQQAAMMHTMLMQMRLGSTTGASTHVPSPLASSSAGRSPLDANASDSESDVEEEEDEQIDPTVMQQTHDMLMQESMCTI [D9E], the “effect of a mutation on the interaction” value was “decreasing interaction strength”.

Variants of: B2
Conditions: with ctnh1_caeel sys-1, Q9XVI2
MMADEELGEEVKVFRRDEDADDDPMISGETSEQQLADDKKEAVMEAELDGAGRNPSIDVLKSAFPKVEPMSPSFPGLMSHFSPGYSAAALPMFMPLFMNPYAAALRSPSLMFPMGAMSPTFPMFPPSPVYGAAIAAAAAKQHFENMAPLNMRAGHPMNQMGMPPYMHPSSMAPQNVDRRAQGGGKAKKDDHVKKPLNAFMWFMKENRKALLEEIGNNEKQSAELNKELGKRWHDLSKEEQAKYFEMAKKDKETHKERYPEWSARENYAVNKKKTKKRRDKSIPSENNDQKKCRARFGVNNTEMWCKFCKRKKKCEYATDRSGGSDITDSQDGRGTSGAYSSSSESPSPKANAGIALTTQQQQAAMMHTMLMQMRLGSTTGASTHVPSPLASSSAGRSPLDANASDSESDVEEEEDEQIDPTVMQQTHDMLMQESMCTI [D9E] was tested, and the “effect of a mutation on the interaction” value was “disrupting interaction strength”.
